In patent US12404336 (dated 2025) one finds EC50, Kd and IC50 data, which are given here for 6 molecules.

In general, EC50 refers to the concentration at which the effect is half-maximal. Low readings indicate an effect from little substance, high ones a need for much substance. The term Kd denotes a measure of binding affinity in units of concentration. Usually IC50 stands for the concentration that gives 50% inhibition.

Test [1] deals with T1, human LAG-3 on CHO-K1 cells (human, UniProt P18627 23-525).
T1 chain: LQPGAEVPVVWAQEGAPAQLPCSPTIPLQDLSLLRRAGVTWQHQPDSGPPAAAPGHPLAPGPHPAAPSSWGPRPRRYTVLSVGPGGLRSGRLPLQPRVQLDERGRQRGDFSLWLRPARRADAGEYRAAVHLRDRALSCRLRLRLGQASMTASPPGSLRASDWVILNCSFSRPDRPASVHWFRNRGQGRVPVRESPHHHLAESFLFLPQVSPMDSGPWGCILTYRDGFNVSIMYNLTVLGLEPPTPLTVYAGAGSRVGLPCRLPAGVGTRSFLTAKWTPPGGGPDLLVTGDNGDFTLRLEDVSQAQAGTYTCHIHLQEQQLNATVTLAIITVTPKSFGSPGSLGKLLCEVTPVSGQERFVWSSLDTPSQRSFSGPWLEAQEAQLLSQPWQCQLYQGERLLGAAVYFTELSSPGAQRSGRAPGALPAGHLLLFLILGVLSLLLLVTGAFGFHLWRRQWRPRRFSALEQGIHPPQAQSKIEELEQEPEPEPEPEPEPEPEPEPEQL
Description: flow cytometry binding. In general terms: In flow cytometry, cells or beads pass a laser one at a time.

The target in test [2] is T2, human LAG-3 fused to mouse IgG2a (huLAG-3-mIgG2a) (human, UniProt P18627 23-450).
T2 chain: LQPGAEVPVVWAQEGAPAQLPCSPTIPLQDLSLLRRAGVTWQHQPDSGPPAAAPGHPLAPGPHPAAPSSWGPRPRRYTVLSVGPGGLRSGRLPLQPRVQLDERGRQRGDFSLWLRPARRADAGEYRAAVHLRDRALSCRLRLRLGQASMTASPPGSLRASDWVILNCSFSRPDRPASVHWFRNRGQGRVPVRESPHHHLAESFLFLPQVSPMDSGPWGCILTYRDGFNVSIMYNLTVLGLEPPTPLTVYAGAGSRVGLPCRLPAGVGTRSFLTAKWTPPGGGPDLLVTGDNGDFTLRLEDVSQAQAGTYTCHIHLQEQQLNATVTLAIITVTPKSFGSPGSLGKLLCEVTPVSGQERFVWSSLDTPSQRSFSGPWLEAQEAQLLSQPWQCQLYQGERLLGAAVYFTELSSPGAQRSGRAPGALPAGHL
Description: SPR. A general note: SPR reads the build-up and loss of mass on a sensor chip optically.

The next test addresses T3, His tagged human LAG-3 (human, UniProt P18627 23-450).
T3 chain: T2 chain
As to the kind of experiment: SPR.

The target in test [3] is T2, human LAG-3 fused to mouse IgG2a …. Description: cell-based blocking of LAG-3-muFc binding to MHC on Raji cells.
Test [4] concerns the target His tagged human PD-1 protein (human, UniProt Q15116 25-167). Description: BLI. (In general: Biolayer interferometry detects binding as a change in optical thickness at a sensor tip.)
Test [5] has as its target T4, His tagged human TIGIT protein (human, UniProt Q495A1 22-141).
T4 chain: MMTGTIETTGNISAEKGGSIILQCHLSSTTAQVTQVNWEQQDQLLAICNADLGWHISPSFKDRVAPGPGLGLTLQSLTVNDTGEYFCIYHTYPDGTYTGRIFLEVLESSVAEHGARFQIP
As to the kind of experiment: BLI.

Test [6] deals with T5, human TIGIT on transfected CHOK1 cells (human, UniProt Q495A1 22-244).
T5 chain: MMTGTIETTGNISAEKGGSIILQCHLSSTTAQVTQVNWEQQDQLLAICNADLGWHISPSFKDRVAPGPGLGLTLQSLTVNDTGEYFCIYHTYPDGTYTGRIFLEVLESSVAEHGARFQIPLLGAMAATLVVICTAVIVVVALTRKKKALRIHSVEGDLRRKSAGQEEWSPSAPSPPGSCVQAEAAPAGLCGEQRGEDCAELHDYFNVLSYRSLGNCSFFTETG
As to the kind of experiment: cell-based blocking of TIGIT/PVR.

Test [7] concerns the target T2, human LAG-3 fused to mouse IgG2a …. As to the kind of experiment: cell-based blocking of LAG-3/MHC II.
The target of test [8] is T4, His tagged human TIGIT protein. Description: sandwich ELISA; simultaneous binding of LAG-3-muFc and His-tagged TIGIT.

Chain of His tagged human PD-1 protein (Q15116 25-167): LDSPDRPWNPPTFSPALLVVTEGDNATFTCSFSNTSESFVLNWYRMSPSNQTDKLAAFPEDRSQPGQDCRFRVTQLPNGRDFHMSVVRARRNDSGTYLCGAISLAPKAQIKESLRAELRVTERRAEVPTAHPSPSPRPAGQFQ

B1: 2L2A.1 (antibody, V domains shown)
VH: QVQLVQSGAEVKKPGASVKVSCKASGYTLTDYYMNWMRQAPGQGLEWMGVINPYNGDTSYNQKFKGRVTMTRDTSTSTVYMELSSLRSEDTAVYYCVRDDGYYVHYFDYWGQGTLVTVSS
VL: DIQMTQSPSSLSASVGDRVTITCRASQDISSRLTWLQQEPEKAPKRLIYATSSLDSGVPKRFSGSGSGTDFTLTISSLQPEDFATYYCLQYASSPLTFGGGTKVEIK
For the molecule B1, the EC50 in test [1] is 1.48 nM. Moreover, the Kd in [2] worked out at 0.001 nM; with His tagged human LAG-3, 1.42 nM. In test [3], this molecule came in with an IC50 of 1.97 nM.

B2: chimeric 2L2A antibody (antibody, V domains shown)
VH: EVQLQQSGPVLVKPGASVKMSCKASGYTLTDYYMNWMKQSHGKSLEWIGVINPYNGDTSCNQKFKGKATLTADKSSSTAYMELNSLTSDDSAVYYCVRDDGYYVHYFDYWGQGTTLTVSS
VL: DIQMTQSPSSLSASLGERVTLTCRASQDISSRLTWLQQEPDGTIKRLIYATSSLDSGVPKRFNGSRSGSDYSLTISSLESEDFVDYYCLQYASSPLTFGAGTKLELKR
B2: in test [3], the IC50 is 3.74 nM.

B3: Bi-TPM-94A (antibody)
chain 1: not shown
chain 2: DIQMTQSPSFLSASVGDRVTITCKASQNVGTNVAWYQQKPGKAPKALIYSASYRYSGVPSRFSGSGSGTEFTLTISSLQPEDFATYYCQQYYSYPYTFGQGTKLEIKRTVAAPSVFIFPPSDEQLKSGTASVVCLLNNFYPREAKVQWKVDNALQSGNSQESVTEQDSKDSTYSLSSTLTLSKADYEKHKVYACEVTHQGLSSPVTKSFNRGEC
As for B3, the Kd in test [4] is 2.9 nM. This counts as single-digit nanomolar.

B4: Bi-TPM-94B (antibody)
chain 1: not shown
chain 2: B3 chain 2
For B4, the Kd in test [4] stood at 2.7 nM; in test [5], 1.7 nM. The IC50 in test [6] came to 0.13 nM.

B5: Bi-LT-1 (antibody)
chain 1: not shown
chain 2: DIQMTQSPSSLSASVGDRVTITCRASQDISSRLTWLQQKPEKAPKRLIYATSSLDSGVPSRFSGSGSGTDFTLTISSLQPEDFATYYCLQYASSPLTFGGGTKVEIKRTVAAPSVFIFPPSDEQLKSGTASVVCLLNNFYPREAKVQWKVDNALQSGNSQESVTEQDSKDSTYSLSSTLTLSKADYEKHKVYACEVTHQGLSSPVTKSFNRGEC
Regarding B5, the IC50 was found to be 0.7 nM in test [7] and 0.24 nM in test [6]. Also, the EC50 in test [8] amounted to 0.0107 µg/mL.

B6: Bi-LT-3 (antibody)
chain 1: not shown
chain 2: B5 chain 2
As to B6, the values for the IC50 in test [7] and in test [6] were 0.9 nM and 0.22 nM, respectively. The molecule also had an EC50 in test [8] of 0.0108 µg/mL.
